Data taken from patent US8901081B2, “Uses of GRS proteins or fragments thereof” (SNU R&DB Foundation, priority 2008, dated 2014).

Tests used:
Assay type in all cases: cell-based
[1] = test system: MAPKs (ERK, p38 MAPK, Jun N-terminal kinase) in HeLa cells; experiment: Effect on MAPKs (immunoblotting of total and phosphorylated MAPKs)
Protocol: HeLa cells were cultured on a 6-well plate for 12 hours. After washing 2 times, the cells were allowed to stand in serum-starved DMEM for 3 hours. Then, the cells were cultured with GRS protein (150 nM) or TNF-α (15 ng/mL) for 10, 30, 60, 90 or 120 minutes, and then washed 2 times with cold phosphate buffer. The protein was extracted with 25 mM Tris-HCl (pH 7.4) lysis buffer containing 150 mM NaCl, 1 mM EDTA, 1 mM sodium orthovanadate, 20 mM sodium fluoride, 12 mM β-glycerophosphate, 10% glycerol, 1% Triton X-100 and protease inhibitor, separated by loading on 10% SDS-PAGE, and then transferred to polyvinylidene difluoride (PVDF) membrane (Millipore). Then, immunoblotting was performed using antibodies specific total MAPKs and phosphorylated MAPKs.

[2] = test system: caspase 3 in HCT+/− cancer cells; experiment: Caspase 3 assay (Western blotting); details: His-GRS protein 50, 100 or 150 nM, 24 hours, FIG. 7
Protocol: HCT+/− cancer cells or macrophage RAW cells were placed on a 35-mm dish. 18 hours later, after washing with serum-starved medium, the cells were treated with His-GRS protein (0, 50 nM, 100 nM or 150 nM) or heated His-GRS protein (150 nM) in serum-starved medium (1 mL). After culturing for 24 hours, the cells were collected using a lifter. The cells were centrifuged at 3000 rpm for 5 minutes and, after decanting the supernatant, adding lysis buffer (200 μL) containing 0.5% Triton X-100, 2 mM EDTA, 10% glycerol, 150 mM NaCl, 25 mM Tris-HCl (pH 7.4) and protease inhibitor, and mixing at 4° C. for 30 minutes, the mixture was centrifuged at a rate of 12,000 rpm at 4° C. for 15 minutes and the protein was quantitated by the Bradford method. The collected protein was separated by loading on 15% SDS-PAGE and Western blotting was carried out using anti-caspase 3 and anti-tubulin antibodies.

[3] = test system: BV2 and SH-SY5Y neural cells, macrophage RAW cells; experiment: Anticancer activity by FACS (sub-G1 dead cells), neural and immune cells; details: GRS protein 100 nM; FIG. 5
Protocol: (§1) HeLa, A549, HCT+/− and HCT+/+ cancer cells, BV2 and SH-SY5Y neural cells, human skin fibroblast HSF cells, and macrophage RAW cells were placed on a 35-mm dish, and cultured for 18 hours. The cell culture was washed with serum-starved medium (1 mL), treated with GRS protein (0 or 100 nM), heated GRS protein (100 nM) or 1 μg/mL Adriamycin, and further treated with trypsin EDTA. The cells were isolated and centrifuged at a rate of 500 g for 10 minutes. After decanting the supernatant, the cells were resuspended in cold PBS (0.3 mL). After adding cold 100% EtOH (0.7 mL) and mixing for 5 seconds, the mixture was incubated at −20° C. overnight. The cell culture was centrifuged at a rate of 500 g at 4° C. for 10 minutes. After decanting the supernatant, adding cold PBS (1 mL) and mixing for 5 seconds, the mixture was centrifuged again at a rate of 500 g at 4° C. for 10 minutes. After decanting the supernatant, the cells were resuspended in P.I solution (500 μL) and incubated at room temperature for 20 minutes. Then, the number of dead cells was counted by FACS by measuring the quantity of DNA fragments resulting from apoptosis. The result is shown in FIG. 5 (The cells in sub-G1 phases were considered as dead cells).

[4] = test system: Bax, Bcl-2 and cytochrome C in HeLa cells; experiment: Intracellular level of Bax, Bcl-2 and cytochrome C (Western blotting); details: 150 nM GRS
Protocol: Also, in order to investigate whether the GRS-induced apoptosis is related with mitochondria, the intracellular level of Bax, Bcl-2 and cytochrome C was examined. First, HeLa cells were cultured with 150 nM GRS for a predetermined time. The cells were then collected, resuspended in 20 mM HEPES (pH 7.5) storage buffer containing 10 mM KCl, 1.5 mM MgCl2, 0.5 mM EDTA, 1 mM DTT and protease inhibitor (Calbiochem), allowed to stand on ice for 5 minutes, and then homogenized for 6 cycles. Then, after centrifuging at 10,000 g for 10 minutes, protein was separated from the supernatant using 12% SDS-PAGE and transferred to PVDF membrane. Then, Western blotting was performed using cytochrome C or anti-tubulin antibody. […] To be concluded, GRS has pro-apoptotic activity in the HeLa cells.

[5] = test system: H293 kidney cells, SH-SY5Y neural cells, macrophage RAW cells; experiment: Anticancer activity by MTT assay, kidney, neural and immune cells; details: His-GRS protein 50, 100 or 150 nM, 24 hours; FIG. 6
Protocol: (§2) HeLa, A549, HCT+/− and H460 cancer cells, H293 kidney cells, SH-SY5Y neural cells, human skin fibroblast HSF cells, and macrophage RAW cells were placed on a 96-well plate, cultured for 18 hours, washed with serum-starved medium, treated with His-GRS protein (0, 50, 100 or 150 nM), heated His-GRS protein (150 nM) or 2 μg/mL Adriamycin in serum-starved medium (100 μL), cultured for 24 hours, treated with 5 mg/mL MTT (10 μL per each well), and then cultured for 2 hours. After decanting the supernatant using a syringe and treating with DMSO (100 μL per each well), the cells were cultured for 10 minutes and absorbance was measured at 570 nm using an ELISA reader.

[6] = test system: HeLa, A549, HCT+/− and HCT+/+ cancer cells; experiment: Anticancer activity by FACS (sub-G1 dead cells), cancer cells; details: GRS protein 100 nM, FIG. 5
Protocol: as §1

[7] = test system: p38 kinase in HCT+/− cancer cells; experiment: Apoptosis mechanism: p38/ERK Western blotting; details: 100 nM GRS protein, 0-120 minutes; FIG. 8
Protocol: HCT+/− cancer cells were placed on a […]. 18 hours later, after washing with serum-starved medium, the cells were treated with 100 nM GRS protein or 2 μg/mL lipopolysaccharide (LPS) in serum-starved medium (1 mL). After culturing for 0, 10, 30, 60, 90 or 120 minutes, the cells were collected using a lifter. The cells were centrifuged at 3,000 rpm for 5 minutes and, after decanting the supernatant, adding lysis buffer (200 μL) containing 0.5% Triton X-100, 2 mM EDTA, 10% glycerol, 150 mM NaCl, 25 mM Tris-HCl (pH 7.4) and protease inhibitor, and mixing at 4° C. for 30 minutes, the mixture was centrifuged at a rate of 12,000 rpm at 4° C. for 15 minutes and the protein was quantitated by the Bradford method. The collected protein was separated by loading on 10% SDS-PAGE and Western blotting was carried out using anti-p-p38, anti-p38, anti-p-ERK, anti-ERK and anti-tubulin antibodies.

[8] = test system: HeLa, A549, HCT+/− and H460 cancer cells; experiment: Anticancer activity by MTT assay, cancer cells; details: His-GRS protein 50, 100 or 150 nM, 24 hours, FIG. 6
Protocol: as §2

[9] = test system: HeLa and HCT+/− cancer cells, normal 293 cells and macrophage RAW cells; experiment: Attachment of biotinylated GRS protein to cells (Western blotting with streptavidin-HRP); details: 0, 1, 2, 5 or 10 μg biotinylated GRS protein; FIG. 4
Protocol: HeLa and HCT+/− cancer cells, normal 293 cells and macrophage RAW cells were placed on a 35-mm dish, cultured for 18 hours, and then washed with serum-starved medium (1 mL). Then, after adding 0, 1, 2, 5 or 10 μg of biotinylated GRS protein, proteins were collected from the whole cell lysate in the same manner as in Example 1. Then, Western blotting was performed using streptavidin-HRP and anti-tubulin antibodies.

[10] = test system: HeLa cells and RAW 264.7 cells; experiment: Cell viability with GST-GRS fragments (MTT assay); details: GST-GRS fragments added to HeLa and RAW 264.7 cells; FIG. 15
Protocol: In order to investigate the domain of the GRS protein related to cytokine activity, four GRS fragments of SEQ ID NOs. 3 to 6 (FIGS. 13 and 14) were prepared and they were expressed with the GST fusion protein. […] Then, cell viability was examined.

[11] = GRS protein 150 nM, 10-120 minutes, FIG. 9

TNF-α [reference compound]
phosphorylation of all the MAPKs ([1]; TNF-α 15 ng/mL, FIG. 10): increased in 30 minutes

B1: GRS protein: glycyl-tRNA synthetase (GRS) protein, amino acid sequence of SEQ ID NO. 1 (protein, listed as Homo sapiens)
chain: MDGAGAEEVLAPLRLAVRQQGDLVRKLKEDKAPQVDVDKAVAELKARKRVLEAKELALQPKDDIVDRAKMEDTLKRRFFYDQAFAIYGGVSGLYDFGPVGCALKNNIIQTWRQHFIQEEQILEIDCTMLTPEPVLKTSGHVDKFADFMVKDVKNGECFRADHLLKAHLQKLMSDKKCSVEKKSEMESVLAQLDNYGQQELADLFVNYNVKSPITGNDLSPPVSFNLMFKTFIGPGGNMPGYLRPETAQGIFLNFKRLLEFNQGKLPFAAAQIGNSFRNEISPRSGLIRVREFTMAEIEHFVDPSEKDHPKFQNVADLHLYLYSAKAQVSGQSARKMRLGDAVEQGVINNTVLGYFIGRIYLYLTKVGISPDKLRFRQHMENEMAHYACDCWDAESKTSYGWIEIVGCADRSCYDLSCHARATKVPLVAEKPLKEPKTVNVVQFEPSKGAIGKAYKKDAKLVMEYLAICDECYITEIEMLLNEKGEFTIETEGKTFQLTKDMINVKRFQKTLYVEEVVPNVIEPSFGLGRIMYTVFEHTFHVREGDEQRTFFSFPAVVAPFKCSVLPLSQNQEFMPFVKELSEALTRHGVSHKVDDSSGSIGRRYARTDEIGVAFGVTIDFDTVNKTPHTATLRDRDSMRQIRAEISELPSIVQDLANGNITWADVEARYPLFEGQETGKKETIEE
modifications: His tag; PEPTIDE (1)..(685) full length of GRS
caspase 3 in active form [2]: caspase 3 in active form was observed | effect on neural and immune cells (dead cells in sub-G1 counted by FACS) [3]: little effect | intracellular level of Bax ([4]; FIG. 11): did not affect | intracellular level of Bcl-2 ([4]; FIG. 11): reduction | secretion of cytochrome C ([4]; FIG. 12): increased | effect on kidney, neural and immune cells (cell viability by MTT assay) [5]: little effect | level of phosphorylated ERK [1, 11]: increased with time | level of phosphorylated p38 MAPK [1, 11]: increased with time | killing of cancer cells (dead cells in sub-G1 counted by FACS) [6]: specifically killed | effect on p38 kinase-related mechanism [7]: had an effect on the p38 kinase-related mechanism | killing of cancer cells (cell viability by MTT assay) [8]: specifically killed | attachment of GRS protein to the surface of cells [9]: attached to the surface of other cells

B2: F4: 511st through 685th amino acids of the full-length GRS, including the C-terminal anticodon-binding domain (protein, listed as Homo sapiens)
chain: LYVEEVVPNVIEPSFGLGRIMYTVFEHTFHVREGDEQRTFFSFPAVVAPFKCSVLPLSQNQEFMPFVKELSEALTRHGVSHKVDDSSGSIGRRYARTDEIGVAFGVTIDFDTVNKTPHTATLRDRDSMRQIRAEISELPSIVQDLANGNITWADVEARYPLFEGQETGKKETIEE
modifications: DOMAIN (1)..(175) Fragment 4 (511-685aa)
pro-apoptotic cytokine activity (cell viability) [10]: exhibited pro-apoptotic cytokine activity
